# Patent US20230329245A1, “COMPOSITIONS AND METHODS OF USE THEREOF” (Curie Co. Inc., priority 2020, published 2023)
# Values joined by “and” are separate entries in the source; they are usually repeats but may differ in a detail not shown here. Identical values can stand only once.
# B1: Tgase (SEQ ID NO: 6): variant Streptomyces mobaraensis transglutaminase (SEQ ID NO:2) with N-terminal Methionine, C-terminal peptide linker and hexa-His-Tag (protein)
# chain: MDPDDRVTPPAEPLDRMPDPYRPSYGRAETVVNNYIRKWQQVYSHRDGRKQQMTEEQREWLSYGCVGVTWVNSGQYPTNRLAFASFDEDRFKNELKNGRPRSGETRAEFEGRVAKESFDEEKGFQRAREVASVMNRALENAHDESAYLDNLKKELANGNDALRNEDARSPFYSALRNTPSFKERNGGNHDPSRMKAVIYSKHFWSGQDRSSSADKRKYGDPDAFRPAPGTGLVDMSRDRNIPRSPTSPGEGFVNFDYGWFGAQTEADADKTVWTHGNHYHAPNGSLGAMHVYESKFRNWSEGYSDFDRGAYVITFIPKSWNTAPDKVKQGWPLEHHHHHH
# Legend:
# Format in all cases: cell-based
# C. albicans ATCC 10231 = experiment: Growth reduction of C. albicans culture (OD600 / BacTiter-Glo); details: C. albicans ATCC 10231
# Description: For MIC determination of yeast cultures, C. albicans ATCC 10231 was grown overnight (24 hours) in YPD media at 30° C. The following day, the cell density of the saturated cultures was calculated using OD600 and cultures were diluted to 10^4 to 10^6 CFU/mL in sterile YPD media to generate the inoculum, and 90 μL of the inoculum was combined with 10 μL of serially diluted Tgase SEQ ID NO:1 at a range of 0.0001-0.01 weight percent. The cultures were grown overnight at 30° C. and growth curves were measured by OD600 on a BioTek® Synergy Plate Reader. Optionally, the following day, a cell viability assay such as BacTiter-Glo™ (Promega®) following manufacturer's protocols) could be used to assess cell viability. A decrease in OD600 or luminescence indicated a decrease in cell viability. Results are presented as a percent reduction in cell count relative to an untreated culture. All test conditions were performed in triplicate.
# Yeast or bacterial starter cultures were grown as described previously. Tgase (SEQ ID NO:6) was added to each culture at 0.001-1 weight percent. The cultures were grown overnight at 30° C.-37° C. and growth curves were measured by a BioTek® Synergy Plate Reader.
# E. coli ATCC 8739 = experiment: MIC determination, E. coli; details: CAMHB pH 7.3, 37° C., 18 to 20 hours, duplicate
# Description: A variant form of Streptomyces mobaraensis transglutaminase having the amino acid sequence depicted in SEQ ID NO:6 was prepared by literature methods with a hexa-his-tag to aid in purification (Javitt, et al. (2017) BMC Biotechnol. 17:23). The cells were grown in shake flasks, lysed by homogenization, and the Tgase variant (SEQ ID NO:6) was isolated from the cell debris by centrifugation. The resulting semi-purified enzyme (clarified lysate) were compared on an SDS-PAGE gel, by spectroscopy, and activity for concentration of active enzyme. The Tgase variant (SEQ ID NO:6) was further purified by affinity column on a Ni-IMAC resin prior to MIC assay. Tgase activity was measured in the examples herein using a colorimetric hydroxamate activity assay (Folk and Cole (1965) J Biol Chemistry 240(7):2951-2960). The enzyme was diluted to a working stock concentration of 2 mg/mL in CAMHB or RPMI media (bacterial or fungal media). This was then 2-fold serial diluted ten times in the appropriate media in a 96-well master plate to generate 2× starting concentrations for MIC testing.
# Strains were acquired from the American Type Culture Collection (ATCC) (Manassas, VA) and maintained as −80° C. frozen glycerol stocks: S. aureus ATCC 6538, E. coli ATCC 8739, P. aeruginosa ATCC 9027, C. albicans ATCC 10231, and A. brasiliensis ATCC 16404. B. subtilis BGSC 1A1276 was purchased from the Bacillus Genetic Stock Center (BGSC) (Columbus, OH) and maintained as −80° C. frozen glycerol stock. Cation-adjusted Mueller-Hinton broth (CAMHB) at pH 7.3 was used for testing with bacterial species (unless otherwise noted), while RPMI 1640 media buffered with 0.165 M MOPS at pH 7.0 was used for testing with all fungal species.
# For MIC determination, bacterial strains (S. aureus ATCC 6538, E. coli ATCC 8739, P. aeruginosa ATCC 9027) were grown overnight on Tryptic Soy Agar (TSA) plates at 37° C. A few colonies of each strain were collected with a sterile swab and used to make a McFarland 0.5 standard solution (approximately 1×10^8 CFU/mL) in sterile PBS. The McFarland solution was then diluted 1:100 in CAMHB to generate the inoculum, and 50 μL of this inoculum was combined with 50 μL of the 2× test article in a 96-well plate for a final concentration of 1×. All test conditions were performed in duplicate. The bacterial-strain MIC 96-well plates were incubated at 37° C. for 18 to 20 hours. MIC is defined as the lowest concentration of a compound in which no visible growth is observed.
# [1] = system: C. parapsilosis ATCC 22019; experiment: Minimum fungicidal concentration (MFC), C. parapsilosis; details: no colonies recovered, duplicate, listed as Tgase variant (SEQ ID NO: 6)
molecule,measurement,setting,value
B1,Fold improvement in enzyme efficacy,C. albicans ATCC 10231; Tgase (SEQ ID NO: 1) = 1,10
same,Percent Growth Reduction,C. albicans ATCC 10231; enzyme concentration 80 ug/mL,99.95%
same,MIC,E. coli ATCC 8739,">1,000 μg/mL"
same,MFC,[1],250 µg/mL and 125 µg/mL
